Measurements taken from patent US20110039758A1.
Several values for one entry are separate records, joined by “and”; a condition that tells them apart may be missing. Equal values may be shown once. Ends that are not written are not given here.

Legend:
Experiment in all cases: G assay
[1] = target: GST-NOS1 (nNOS) PDZ domain (human)
[2] = target: GST-PSD95 PDZ domain 1 (human)
[3] = target: GST-PSD95 PDZ domain 3 (human)
[4] = target: GST-PSD95 PDZ domain 2 (human)

Row | Binder | Average OD [1] | Average OD [2] | Average OD [3] | Average OD [4]
1 | PIPAGGCTFSGIFPTLTSPL (modifications not checked) [KIAA 1481 PL peptide] | 0.71 OD | – | – | –
2 | SPQPDSTDNDDYDDISAA (modifications not checked) [CD6 PL peptide] | 0.59 OD | – | – | –
3 | DFRPSFKHILFRRARRGFRQ (modifications not checked) [alpha-2C Adrenergic receptor PL peptide] | 3.02 OD and 2.09 OD | 2.05 OD and 1.26 OD | 1.72 OD and 1.19 OD | –
4 | SSPDSSYQGKGFVMSRAMYV (modifications not checked) [Nectin 2 PL peptide] | 0.54 OD | 1.01 OD | 0.91 OD | –
5 | HDFRRAFKKILARGDRKRIV (modifications not checked) [alpha-2A Adrenergic receptor PL peptide] | 0.96 OD and 0.73 OD | – | – | –
6 | TTNNNPNSAVNIKKIFTDV (modifications not checked) [KV1.3 PL peptide] | 0.67 OD | 2.28 OD and 1.12 OD | 1 OD | 1.06 OD
7 | PYSELNYETSHYPASPDSWV (modifications not checked) [catenin-delta 2 PL peptide] | 2.1 OD | 1.18 OD | – | –
8 | GGDLGTRRGSAHFSSLESEV (modifications not checked) [NMDAR2D C-terminal 20mer peptide] | – | 0.86 OD and 0.77 OD | – | 3.11 OD and 2.22 OD and 1.31 OD
9 | YGRKKRRQRRRKLSSIESDV (not fully specified) [[…] (Tat transporter fused to the C-terminal 9 amino acids of NMDA Receptor 2B)] | – | 3.87 OD and 2.13 OD and 1.4 OD | – | 4.06 OD and 3.53 OD and 3.1 OD
10 | VDPNSPAAKKKYVSYNNLVI (modifications not checked) [GLUR7 (metabotropic glutamate receptor) PL peptide] | 0.75 OD and 0.64 OD and 0.59 OD | 0.85 OD | 0.82 OD | –
11 | KAGYRAPRSYPKSNSSKEYV (modifications not checked) [claudin 7 PL peptide] | 1.01 OD and 0.93 OD | 1.28 OD and 1.08 OD | 0.92 OD and 0.86 OD | –
12 | QDFRRAFRRILARPWTQTAW (modifications not checked) [a-2B Adrenergic receptor PL peptide] | 3.54 OD and 2.52 OD | 1.59 OD and 0.87 OD | 3.74 OD and 2.98 OD | –
13 | LNSSSNRRVYKKMPSIESAV (modifications not checked) | – | – | – | 3.37 OD and 2.67 OD and 2.29 OD
14 | HHLVAQRDIRQFQLQHWLAI (modifications not checked) [noradrenaline transporter PL peptide] | 1.08 OD | – | 0.82 OD and 0.7 OD | –
15 | SSSQSLESDGSYQKPSYIL (modifications not checked) [CD62E PL peptide] | 0.5 OD | – | – | –
16 | LGYSIPSRSGASGLDKRDYV (modifications not checked) [claudin 9 PL peptide] | 0.51 OD | 0.82 OD | – | –
17 | QISPGGLEPPSEKHFRETEV (modifications not checked) [20 C-terminal amino acids from TAX] | – | – | – | 2.39 OD
18 | VGTLLLERVIFPSVKIATLV (modifications not checked) [AdenoE4 typ9 PL peptide] | 3.64 OD and 2.73 OD and 4 OD | – | – | –
19 | LAVLAYSITLVMLWSIWQYA (modifications not checked) [Serotonin receptor 3a PL peptide] | 1.02 OD | – | – | –
20 | TQGFPGPATWRRISSLESEV (modifications not checked) [NMDA Glutamate Receptor 2C (cysteine-free) C-terminal 20mer peptide] | 0.49 OD | – | 1.46 OD and 1.17 OD | 3.56 OD and 2.89 OD and 2.07 OD

Row | Binder | Average OD [1] | Average OD [2] | Average OD [3] | Average OD [4]
21 | RIAYSLLGLKDQVNTVGIPI (modifications not checked) [ephrin A2 PL peptide] | 1.83 OD and 4 OD | – | – | –
22 | KTMPAAMYRLLTAQEQPVYI (modifications not checked) [MINT-1 PL peptide] | 4 OD and 3.76 OD | – | – | –
23 | SYPTPRPYPKPAPSSGKDYV (modifications not checked) [claudin 1 PL peptide] | 0.9 OD | 0.95 OD | 0.85 OD | –
24 | AWDDSARAAGGQGLHVTAL (modifications not checked) [LPAP PL peptide] | 0.77 OD | – | – | –
25 | VHKVRNKFKAKCSLCRLYII (modifications not checked) [HPV-E6 #63 PL peptide] | 2.55 OD and 4 OD | 4 OD and 2.67 OD | 4 OD | 4 OD and 2.62 OD
26 | ELLQFCRTPNPALKNGQYWV (modifications not checked) [CSPG4 (chondroitin sulfae proteoglycan 4, melanoma-associated) PL peptide] | 2.43 OD and 1.27 OD | – | – | –
27 | LNSCSNRRVYKKMPSIESDV (modifications not checked) [NMDAR2A C-terminal 20mer peptide] | – | 4.07 OD and 4 OD | – | –
28 | SFTSILTCHQRRTQRKETVA (modifications not checked) [GluR5-2 (rat) PL peptide] | 0.65 OD | 3.12 OD and 2.26 OD | 4 OD | –
29 | VPSDNIDSQGRNASINDSLL (modifications not checked) [beta-2 Adrenergic Receptor PL peptide] | 0.85 OD | – | – | –
30 | SSKSKSSEESQTFFGLYKL (modifications not checked) [Fas Ligand PL peptide] | 1.99 OD and 1.93 OD | 1.23 OD | 1.07 OD | –
31 | ALVLIAFCIIRRRPSAYQAL (modifications not checked) [CD68 PL peptide] | 0.67 OD | – | – | –
32 | HSCCNRARQERLQRRRETQV (modifications not checked) [HPV-E6 #18 PL peptide] | 2.14 OD | – | – | –
33 | RELVDRGEVRQFTLRHWLKV (modifications not checked) [Dopamine transporter PL peptide] | 1.38 OD and 1.27 OD and 1.1 OD | – | – | –
34 | TGSALQAWRHTSRQATESTV (modifications not checked) | – | 3.86 OD | 0.78 OD | –
35 | GRWTGRAMSAWKPTRRETEV (modifications not checked) [HPV E6 #35 (cysteine-free) PL peptide] | 0.74 OD and 0.62 OD | 4 OD and 3.08 OD | 4 OD | 2.82 OD
36 | KDITSDSENSNFRNEIQSLV (modifications not checked) | – | – | – | 1.35 OD
37 | RSGATIPLVGQDIIDLQTEV (modifications not checked) | – | – | – | 1.23 OD
38 | DGGARTEDEVQSYPSKHDYV (modifications not checked) | – | 1.25 OD | 1.05 OD | –
39 | PGQPPKVKSEFNSYSLTGYV (modifications not checked) [claudin 2 PL peptide] | 0.69 OD | 1.03 OD and 0.85 OD | 0.79 OD | –
